# Changes are numbered by the printed parent chain. Names may count otherwise. Square brackets hold non-standard residues; d marks the D form. Ends that are not written are not given here. Peptide text beside a SMILES is read from it. * marks the point of attachment. FITC = O=C1OC2(c3ccc(O)cc3Oc3cc(O)ccc32)c2ccc(NC(=S)*)cc21; Biotin = O=C1N[C@H]2[C@H](CS[C@H]2CCCCC(=O)*)N1; pT = C[C@@H](OP(=O)(O)O)[C@H](N)C(=O)O; Ahx = NCCCCCC(=O)O
# T1: full-length wild-type CHIP (Homo sapiens, UniProt Q9UNE7)
# T1 construct: Recombinant CHIP-TPR (residues 21-154) and full-length CHIP proteins were expressed and purified as described; HIS; made in house
# T1 sequence (Q9UNE7 1-303): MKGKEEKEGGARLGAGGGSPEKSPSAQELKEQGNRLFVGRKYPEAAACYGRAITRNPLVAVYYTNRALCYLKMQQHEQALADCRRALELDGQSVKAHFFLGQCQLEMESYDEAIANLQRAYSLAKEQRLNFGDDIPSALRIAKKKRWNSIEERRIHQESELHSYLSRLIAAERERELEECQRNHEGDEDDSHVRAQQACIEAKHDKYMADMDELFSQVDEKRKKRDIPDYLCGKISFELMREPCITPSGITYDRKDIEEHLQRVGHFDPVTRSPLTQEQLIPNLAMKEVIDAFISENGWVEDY
# T2: full-length CHIP-G132N (Homo sapiens, UniProt Q9UNE7, G132N)
# T2 construct: HIS; made in house
# T2 sequence (Q9UNE7 1-303 G132N): T1 sequence (Q9UNE7 1-303) with G132N
# T3: CHIP TPR (fluorescence polarization construct) (human)
# T3 chain: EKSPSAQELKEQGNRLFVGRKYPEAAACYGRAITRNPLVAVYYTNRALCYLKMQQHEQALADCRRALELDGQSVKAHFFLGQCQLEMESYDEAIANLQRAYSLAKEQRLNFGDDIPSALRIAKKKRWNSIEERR
# T4: full-length CHIP (wild-type) (human, UniProt Q9UNE7 1-303)
# T4 construct: CHIP (STUB1), full length, wild-type; Vector CHIP of the JCS lab; also called CHIP-WT; STUB1
# T4 sequence (looked up): T1 sequence (Q9UNE7 1-303)
# T5: human CHIP-TPR (residues 21-154) (human, UniProt Q9UNE7 21-154)
# T5 construct: also called wild-type CHIP-TPR
# T5 sequence (looked up): T3 chain
# T6: G132N CHIP-TPR (human, UniProt Q9UNE7 21-154, G132N)
# T6 construct: CHIP (STUB1), human, TPR domain with G132N; also called G132N variant
# T6 sequence (looked up): T3 chain with G112N
# B1: FITC-Ahx-GSGPTIEEVD (peptide)
# peptide: {FITC-Ahx}-GSGPTIEEVD
# notes: C-terminal tail of human HSP70 (HSPA1A); also called EEVD (fluorescence polarization tracer); unphosphorylated EEVD peptide; source: synthetic peptide (Lifetein/Genscript)
# B2: biotin-GSGSGP(pT)IEEVD (peptide)
# peptide: Biotin-GSGSGP[pT]IEEVD
# notes: C-terminal tail of human HSP70 (HSPA1A), Thr636 phosphorylated; also called biotin-pEEVD; biotinylated pEEVD peptide; source: synthetic peptide (Lifetein/Genscript)
# B3: biotin-GSGSGPTIEEVD (peptide)
# peptide: Biotin-GSGSGPTIEEVD
# notes: C-terminal tail of human HSP70 (HSPA1A); also called biotin-EEVD; biotinylated EEVD peptide; source: synthetic peptide (Lifetein/Genscript)
# B4: CHIP TPR (fluorescence polarization construct) (domain or fragment)
# chain: T3 chain
# B5: CHIP TPR-CC (domain or fragment)
# chain: MKGKEEKEGGARLGAGGGSPEKSPSAQELKEQGNRLFVGRKYPEAAACYGRAITRNPLVAVYYTNRALCYLKMQQHEQALADCRRALELDGQSVKAHFFLGQCQLEMESYDEAIANLQRAYSLAKEQRLNFGDDIPSALRIAKKKRWNSIEERRIHQESELHSYLSRLIAAERERELEECQRNHEGDEDDSHVRAQQACIEAKHDKYMADMDELFSQVDEKRKKR
# B6: G132N: structure-guided G132N substitution variant of CHIP (protein)
# chain: T1 sequence (Q9UNE7 1-303) with G132N
# modifications: left off: HIS, end not stated, state not stated
# notes: structure-guided G132N substitution variant of CHIP
# Columns and labels:
# proteasome = test: Proteasome-dependent turnover of HSP70 T636 variants; assay type: cell-based; conditions: relative to WT and T636A, Figure S3
# [1] = biological target: T1, full-length wild-type CHIP; test: Fluorescence polarization, full-length wild-type CHIP with HSP70 C-terminal peptide; conditions: Fig. 4c binding curve, value in picture; FITC-Ahx-labelled peptide 20 nM, room temperature, 30 min; n = 3 independent experiments
# Excerpt: (§1) Plasmids were propagated in DH5α Escherichia coli and purified using Qiagen Miniprep or Bio-Rad Midiprep kits. Mutations were introduced with Q5 (NEB) or QuikChange II XL (Agilent) kits and verified by Sanger sequencing. Peptides (Lifetein/Genscript) included unphosphorylated […] (EEVD), phosphorylated GP(pT)IEEVD (pEEVD), biotin-[…] (biotin-EEVD), biotin-GSGSGP(pT)IEEVD (biotin-pEEVD), and FITC-Ahx-[…] or FITC-Ahx-GSGP(pT)IEEVD for polarization assays. Recombinant CHIP-TPR (residues 21-154) and full-length CHIP proteins were expressed and purified as described.[8], [29]
# (§2) The N-terminally labeled peptides were loaded into PCR reaction tubes at 2X (40 nM), resulting in a final concentration of 20 nM. Recombinant CHIP constructs were added to the tubes at the indicated concentrations. The reaction was left at room temperature for 30 min before loading into black, low-volume, round-bottom 384-well plates (Greiner Bio-One) with inter-run triplicates at 18 μl each and subsequently repeated independently 2 more times. […] The polarization readings were normalized to the dilution buffer. Gain adjustment was made to the tracer HSP70 peptides alone.
# full-length CHIP-G132N = biological target: T2, full-length CHIP-G132N; test: Fluorescence polarization, full-length CHIP-G132N; conditions: Fig. 4d binding curve, value in picture; FITC-Ahx-labelled peptide 20 nM, room temperature, 30 min; n = 3 independent experiments
# Excerpt: as §1, §2
# CHIP = CHIP (UniProt Q9UNE7); test: fluorescence polarization titration; conditions: reference: unphosphorylated EEVD peptide; sites T636
# [2] = biological target: T3, CHIP TPR (fluorescence polarization …); test: FP
# [3] = biological target: T4, full-length CHIP (wild-type); test: fluorescence polarisation; FITC-labelled peptide at 20 nM, recombinant CHIP constructs added at varied concentrations, 30 min at room temperature; one-site total binding fit, normalised to % of maximum binding; conditions: both partners purified
# [4] = biological target: T5, human CHIP-TPR (residues 21-154); test: BLI; BLItz, biotinylated peptide loaded on streptavidin sensors, TPR construct at 1 to 25 uM in solution; 20 mM HEPES, 150 mM NaCl, 5 mM beta-mercaptoethanol, pH 7.2; Kd = koff/kon from individual fits; conditions: both partners purified
# G132N CHIP-TPR = biological target: T6, G132N CHIP-TPR; test: as above; conditions: both partners purified
# FITC-Ahx-GSGPTIEEVD = biological target: B1; test: fluorescence polarisation; FITC-labelled peptide at 20 nM, recombinant CHIP constructs added at varied concentrations, 30 min at room temperature; one-site total binding fit, normalised to % of maximum binding; conditions: both partners purified
# HSP70 [5] = test: NanoBiT, transient cellular HSP70-CHIP interaction; assay type: cell-based; conditions: Figure S1
# HSP70 [6] = test: Co-immunoprecipitation, steady-state HSP70-CHIP interaction; assay type: cell-based; conditions: phosphomimetic HSP70, Figure S1
# HSP70 [7] = test: In vitro HSP70 ubiquitination; assay type: biochemical; conditions: Figure S2
molecule,measurement,setting,value
T636D phosphomimetic: HSP70 T636D phosphomimetic variant,turnover,proteasome,accelerated proteasome-dependent turnover
"CC[C@H](C)[C@H](NC(=O)[C@@H](NC(=O)[C@@H]1CCCN1C(=O)CN)[C@@H](C)OP(=O)(O)O)C(=O)N[C@@H](CCC(=O)O)C(=O)N[C@@H](CCC(=O)O)C(=O)N[C@H](C(=O)N[C@@H](CC(=O)O)C(=O)O)C(C)C [pEEVD, GP(pT)IEEVD] (H-GP[pT]IEEVD-OH)",Kd,[1],46 nM
same,Kd,full-length CHIP-G132N,96 nM
HSP70 C-terminal tail (from UniProt P0DMV8) pT636 pEEVD peptide,fold change,CHIP,weaker
CC[C@H](C)[C@H](NC(=O)[C@@H](NC(=O)[C@@H]1CCCN1C(=O)CN)[C@@H](C)O)C(=O)N[C@@H](CCC(=O)O)C(=O)N[C@@H](CCC(=O)O)C(=O)N[C@H](C(=O)N[C@@H](CC(=O)O)C(=O)O)C(C)C [EEVD] (H-GPTIEEVD-OH),Kd,[1],6.5 nM
same,Kd,full-length CHIP-G132N,9.2 nM
B1,Kd,[2],42000 nM
same,Kd,[3],7 nM
B2,Kd,[4],5230 nM
same,Kd,G132N CHIP-TPR,1250 nM
B3,Kd,[4],592 nM
same,Kd,G132N CHIP-TPR,597 nM
B4,Kd,FITC-Ahx-GSGPTIEEVD,28 nM
B5,Kd,FITC-Ahx-GSGPTIEEVD,42 nM
B6,binding to the non-mimetic HSP70,HSP70 [5],overall reducing binding
same,rescue of interaction in co-immunoprecipitation,HSP70 [6],no rescue
same,HSP70 ubiquitination activity,HSP70 [7],retained HSP70 ubiquitination activity

# Source: article PMC13090976 (Cell Stress & Chaperones, 2026)
